Patent US11795460B2, “Compositions and methods for TTR gene editing and treating ATTR amyloidosis” (Intellia Therapeutics, Inc., priority 2017, dated 2023)
Strand notation (5' to 3'): a small letter for the sugar, then the base; units joined by * are phosphorothioate-linked, units joined directly phosphodiester-linked; [ ] holds rarer units or linkages, { } end groups; capitals alone tell only the bases. m = 2'-O-methyl; r = 2'-OH (RNA)

Experiments:
TTR [1] = assay: TTR editing in primary cyno hepatocytes treated with LNP formulated Spy Cas9 mRNA (SEQ ID NO: 2) and sgRNAs (Tables 17, 18); type: cell-based, cynomolgus monkey; settings: LNP formulated Spy Cas9 mRNA (SEQ ID NO: 2) and cyno matched sgRNAs, 72 hours post treatment
Procedure: (§1) Primary liver hepatocytes. Primary human liver hepatocytes (PHH) and primary cynomolgus liver hepatocytes (PCH) (Gibco) were cultured per the manufacturer's protocol (Invitrogen, protocol 11.28.2012). In brief, the cells were thawed and resuspended in hepatocyte thawing medium with supplements (Gibco, Cat. CM7000) followed by centrifugation at 100 g for 10 minutes for human and 80 g for 4 minutes for cyno. The supernatant was discarded and the pelleted cells resuspended in hepatocyte plating medium plus supplement pack (Invitrogen, Cat. A1217601 and CM3000). Cells were counted and plated on Bio-coat collagen I coated 96-well plates (ThermoFisher, Cat. 877272) at a density of 33,000 cells/well for human or 60,000 cells/well for cyno (or 65,000 cells/well when assaying effects on TTR protein, described further below). Plated cells were allowed to settle and adhere for 6 or 24 hours in a tissue culture incubator at 37° C. and 5% CO2 atmosphere. After incubation cells were checked for monolayer formation and media was replaced with hepatocyte culture medium with serum-free supplement pack (Invitrogen, Cat. A1217601 and CM4000).
In general, the lipid nanoparticle components were dissolved in 100% ethanol with the lipid component of various molar ratios. The RNA cargos were dissolved in 25 mM citrate, 100 mM NaCl, pH 5.0, resulting in a concentration of RNA cargo of approximately 0.45 mg/mL. The LNPs were formulated with a lipid amine to RNA phosphate (N:P) molar ratio of about 4.5 or about 6, with the ratio of mRNA to gRNA at 1:1 by weight.
The LNPs were formed by microfluidic mixing of the lipid and RNA solutions using a Precision Nanosystems NanoAssemblr™ Benchtop Instrument, according to the manufacturer's protocol. A 2:1 ratio of aqueous to organic solvent was maintained during mixing using differential flow rates. After mixing, the LNPs were collected, diluted in water (approximately 1:1 v/v), held for 1 hour at room temperature, and further diluted with water (approximately 1:1 v/v) before final buffer exchange. The final buffer exchange into 50 mM Tris, 45 mM NaCl, 5% (w/v) sucrose, pH 7.5 (TSS) was completed with PD-10 desalting columns (GE). If required, formulations were concentrated by centrifugation with Amicon 100 kDa centrifugal filters (Millipore). The resulting mixture was then filtered using a 0.2 μm sterile filter. The final LNP was stored at −80° C. until further use.
(§2) To quantitatively determine the efficiency of editing at the target location in the genome, sequencing was utilized to identify the presence of insertions and deletions introduced by gene editing.
(§3) Primers were designed around the target site within the gene of interest (e.g. TTR), and the genomic area of interest was amplified.
(§4) Additional PCR was performed per the manufacturer's protocols (Illumina) to add chemistry for sequencing. The amplicons were sequenced on an Illumina MiSeq instrument. The reads were aligned to a reference genome (e.g., the human reference genome (hg38), the cynomologus reference genome (mf5), the rat reference genome (rn6), or the mouse reference genome (mm10)) after eliminating those having low quality scores. The resulting files containing the reads were mapped to the reference genome (BAM files), where reads that overlapped the target region of interest were selected and the number of wild type reads versus the number of reads which contain an insertion, substitution, or deletion was calculated.
(§5) The editing percentage (e.g., the “editing efficiency” or “percent editing” or “indel frequency”) is defined as the total number of sequence reads with insertions/deletions (“indels”) or substitutions over the total number of sequence reads, including wild type.
Lipid nanoparticle formulations of modified sgRNAs targeting human TTR and the cyno matched sgRNA sequences were tested on primary human hepatocytes and primary cyno hepatocytes in a dose response curve. Primary human and cyno hepatocytes were plated as described in Example 1. […]

TTR [2] = assay: TTR editing in primary cyno hepatocytes electroporated with Spy Cas9 protein and sgRNAs (Tables 14, 15); type: cell-based, cynomolgus monkey; settings: Table 15; primary cyno hepatocytes electroporated with Spy Cas9 protein (RNP) and cyno specific sgRNAs
Procedure: as §1
Ribonucleotide formation was performed prior to electroporation or transfection of Spy Cas9 protein loaded with guide RNAs (RNPs) onto cells. For dual guide (dgRNAs), individual crRNA and trRNA was pre-annealed by mixing equivalent amounts of reagent and incubating at 95° C. for 2 min and cooling to room temperature. Single guide (sgRNAs) were boiled at 95° C. for 2 min and cooling to room temperature. The boiled dgRNA or sgRNA was incubated with Spy Cas9 protein in Optimem for 10 minutes at room temperature to form a ribonucleoprotein (RNP) complex.
For RNP electroporation into primary human and cyno hepatocytes, the cells are thawed and resuspended in Lonza electroporation Primary Cell P3 buffer at a concentration of 2500 cells per μL for human hepatocytes and 3500 cells per μL for cyno hepatocytes. A volume of 20 μL of resuspended cells and 5 μL of RNP are mixed together per guide. 20 μL of the mixture is placed into a Lonza electroporation plate. The cells were electroporated using the Lonza nucleofector with the preset protocol EX-147. Post electroporation, the cells are transferred into a Biocoat plate containing pre-warmed maintenance media and placed in a tissue culture incubator at 37° C. and 5% CO2.
Transfected cells were harvested post-transfection at 24, 48, or 72 hours. The genomic DNA was extracted from each well of a 96-well plate using 50 μL/well BuccalAmp DNA Extraction solution (Epicentre, Cat. QE09050) per manufacturer's protocol. All DNA samples were subjected to PCR and subsequent NGS analyses, as described herein.
as §2, §3, §4
The editing percentage (e.g., the “editing efficiency” or “percent editing” or “indel frequency”) is defined as the total number of sequence reads with insertions/deletions (“indels”) or substitutions over the total number of sequence reads, including wild type. […]

TTR [3] = assay: EC50 and maximum editing in primary human hepatocytes treated with LNP formulated U-depleted Spy Cas9 mRNA and sgRNAs (Tables 19, 21); type: cell-based; design: key: % of sequence reads with indels or substitutions over total reads; settings: Table 21, LNP with U-depleted Spy Cas9 mRNA and cyno specific sgRNAs, dose response
Procedure: as §1
(§6) For LNPs prepared using the cross-flow technique, the LNPs were formed by impinging jet mixing of the lipid in ethanol with two volumes of RNA solutions and one volume of water. The lipid in ethanol is mixed through a mixing cross with the two volumes of RNA solution. A fourth stream of water is mixed with the outlet stream of the cross through an inline tee. (See WO2016010840 FIG. 2.) The LNPs were held for 1 hour at room temperature, and further diluted with water (approximately 1:1 v/v). Diluted LNPs were concentrated using tangential flow filtration on a flat sheet cartridge (Sartorius, 100 kD MWCO) and then buffer exchanged by diafiltration into 50 mM Tris, 45 mM NaCl, 5% (w/v) sucrose, pH 7.5 (TSS). Alternatively, the final buffer exchange into TSS was completed with PD-10 desalting columns (GE). If required, formulations were concentrated by centrifugation with Amicon 100 kDa centrifugal filters (Millipore). The resulting mixture was then filtered using a 0.2 μm sterile filter. The final LNP was stored at 4° C. or −80° C. until further use.
as §2, §3, §4, §5
(§7) Lipid nanoparticle formulations of modified sgRNAs targeting human TTR and the cyno matched sgRNA sequences were tested on primary human hepatocytes and primary cyno hepatocytes in a dose response curve. Primary human and cyno hepatocytes were plated as described in Example 1. Both cell lines were incubated at 37° C., 5% CO2 for 24 hours prior to treatment with LNPs. […]

TTR [4] = assay: EC50 and maximum editing in primary cyno hepatocytes treated with LNP formulated U-depleted Spy Cas9 mRNA and sgRNAs (Tables 20, 22); type: cell-based, cynomolgus monkey; design: key: % of sequence reads with indels or substitutions over total reads; settings: Table 22, LNP with U-depleted Spy Cas9 mRNA and cyno specific sgRNAs, dose response
Procedure: as §1, §6, §2, §3, §4, §5, §7

B1: G000506: TTR Cyno specific sgRNA modified sequence, SEQ ID No. 118; guide sequence of CR005366 (nucleic acid)
guide: mA*mU*mA*rCrCrArGrUrCrCrArGrCrGrArGrGrCrArGrGrUrUrUrUrArGrAmGmCmUmAmGmAmAmAmUmAmGmCrArArGrUrUrArArArArUrArArGrGrCrUrArGrUrCrCrGrUrUrArUrCrAmAmCmUmUmGmAmAmAmAmAmGmUmGmGmCmAmCmCmGmAmGmUmCmGmGmUmGmCmU*mU*mU*mU
- 12.5 ng mRNA, 3.9 nM sgRNA % Edit (TTR [1]): 60.13%
- Avg % Deletion (TTR [2]): 3.07%
- Avg % Edit (TTR [2]): 89.43%
- Avg % Insert (TTR [2]): 86.90%
- Max Editing (TTR [3]): 89.49
- Max Editing (TTR [4]): 99.18
